Experiment [1] deals with normal P301L mutant human 4R0N tau from rTg4510 mouse brain (55 kDa band) (human) (UniProt P10636). The experiment in a line: immunodepletion of rTg4510 brain extracts; western blot quantification (FIG. 14). On the technique in general: In western blotting, separated proteins are transferred to a membrane and probed.
Experiment [2] addresses pathological hyperphosphorylated tau from human Alzheimer's disease brain, sarkosyl-insoluble P3 fraction (human) (UniProt P10636). Kind of experiment: MSD, AD-P3 coated plate (FIG. 34); PHF 13 at '3000' (unit inferred) + PBS/0.1% BSA (no competitor).
The target is the same in experiment [3]. Kind of experiment: MSD, AD-P3 coated plate (FIG. 34); PHF 13 at '100000' (unit inferred) + 10 µM tau peptide as competitor.
For experiment [4] the target is unchanged. The experiment in a line: fluid phase inhibition of p-tau antigen capture in mC10-2 coated plate.
The target is the same in experiment [5]. The experiment in a line: MSD, AD-P3 coated plate (FIG. 34); PHF 13 at '1000000' (unit inferred) + 10 µM tau peptide as competitor.
Experiment [6] has the same target. The experiment in a line: MSD, AD-P3 coated plate (FIG. 34); PHF 13 at '1000000' (unit inferred) + PBS/0.1% BSA (no competitor).
The target is the same in experiment [7]. The experiment in a line: MSD, AD-P3 coated plate (FIG. 34); PHF 13 at '100000' (unit inferred) + PBS/0.1% BSA (no competitor).
The target is the same in experiment [8]. The experiment in a line: MSD, AD-P3 coated plate (FIG. 34); PHF 13 at '300000' (unit inferred) + 10 µM tau peptide as competitor.
The target is the same in experiment [9]. Kind of experiment: MSD, AD-P3 coated plate (FIG. 34); PHF 13 at '30000' (unit inferred) + PBS/0.1% BSA (no competitor).
The target is the same in experiment [10]. Kind of experiment: MSD, AD-P3 coated plate (FIG. 34); PHF 13 at '300000' (unit inferred) + PBS/0.1% BSA (no competitor).
Experiment [11] has the same target. The experiment in a line: MSD, AD-P3 coated plate (FIG. 34); PHF 13 at '10000' (unit inferred) + PBS/0.1% BSA (no competitor).
The target is the same in experiment [12]. The experiment in a line: MSD, AD-P3 coated plate (FIG. 34); PHF 13 at '3000' (unit inferred) + 10 µM tau peptide as competitor.
For experiment [13] the target is unchanged. The experiment in a line: MSD, AD-P3 coated plate (FIG. 34); PHF 13 at '10000M' (unit not explained) + 10 µM tau peptide as competitor.
The target is the same in experiment [14]. The experiment in a line: MSD, AD-P3 coated plate (FIG. 34); PHF 13 at '1000' (unit inferred) + PBS/0.1% BSA (no competitor).
For experiment [15] the target is unchanged. The experiment in a line: MSD, AD-P3 coated plate (FIG. 34); PHF 13 at '30000' (unit inferred) + 10 µM tau peptide as competitor.
Experiment [16] has the same target. The experiment in a line: MSD, AD-P3 coated plate (FIG. 34); PHF 13 at '1000' (unit inferred) + 10 µM tau peptide as competitor.
The target is the same in experiment [17]. The experiment in a line: MSD, AD-P3 coated plate (FIG. 34); C10-2 3 ng/ml + 10 µM tau peptide as competitor.
The target is the same in experiment [18]. The experiment in a line: MSD, AD-P3 coated plate (FIG. 34); C10-2 10000 ng/ml + PBS/0.1% BSA (no competitor).
For experiment [19] the target is unchanged. The experiment in a line: fluid phase inhibition of Ptau antigen capture in C10-2 coated plate (comparison with mD1.2).
Experiment [20] shares this target. Kind of experiment: MSD, AD-P3 coated plate (FIG. 34); C10-2 100 ng/ml + PBS/0.1% BSA (no competitor).
Experiment [21] shares this target. The experiment in a line: fluid phase inhibition of p-tau antigen capture in mC10-2 coated plate (comparison with PHF-13).
Experiment [22] shares this target. The experiment in a line: MSD, AD-P3 coated plate (FIG. 34); C10-2 3 ng/ml + PBS/0.1% BSA (no competitor).
Experiment [23] shares this target. Kind of experiment: MSD, AD-P3 coated plate (FIG. 34); C10-2 1000 ng/ml + PBS/0.1% BSA (no competitor).
Experiment [24] deals with hyperphosphorylated tau phosphorylated at serine 396 in human Alzheimer brain (extracts and sections) (human) (UniProt P10636). The experiment in a line: immunodepletion of Alzheimer brain extract; western blot; compared to hHel control antibody.
For experiment [25], the target named is pathological hyperphosphorylated tau from human Alzheimer's disease brain, sarkosyl-insoluble P3 fraction (human) (UniProt P10636). The experiment in a line: fluid phase MSD ELISA: antibody mixed with AD P3 in solution, capture on C10-2 coated plates.
Experiment [26] shares this target. The experiment in a line: MSD, AD-P3 coated plate (FIG. 34); C10-2 100 ng/ml + 10 µM tau peptide as competitor.
Experiment [27] shares this target. The experiment in a line: MSD, AD-P3 coated plate (FIG. 34); C10-2 10 ng/ml + 10 µM tau peptide as competitor.
Experiment [28] has the same target. Kind of experiment: MSD, AD-P3 coated plate (FIG. 34); C10-2 30 ng/ml + 10 µM tau peptide as competitor.
The target is the same in experiment [29]. The experiment in a line: MSD, AD-P3 coated plate (FIG. 34); C10-2 1000 ng/ml + 10 µM tau peptide as competitor.
For experiment [30] the target is unchanged. Kind of experiment: MSD, AD-P3 coated plate (FIG. 34); C10-2 30 ng/ml + PBS/0.1% BSA (no competitor).
The target of experiment [31] is hyperphosphorylated tau phosphorylated at serine 396 in human Alzheimer brain (extracts and sections) (human) (UniProt P10636). The experiment in a line: immunodepletion of Alzheimer brain extract with antibody on Protein G Dynabeads; western blot.
For experiment [32], the target named is pathological hyperphosphorylated tau from human Alzheimer's disease brain, sarkosyl-insoluble P3 fraction (human) (UniProt P10636). Kind of experiment: MSD, AD-P3 coated plate (FIG. 34); C10-2 10000 ng/ml + 10 µM tau peptide as competitor.
Experiment [33] shares this target. The experiment in a line: MSD, AD-P3 coated plate (FIG. 34); C10-2 300 ng/ml + 10 µM tau peptide as competitor.
The target is the same in experiment [34]. Kind of experiment: fluid phase MSD ELISA: inhibition of tau antigen capture. In general terms: In an ELISA, binding on a coated surface is turned into a signal by an enzyme label.
Experiment [35] shares this target. Kind of experiment: MSD ELISA on immobilised P3 tau; ratio of binding to AD over healthy control at saturation.
For experiment [36] the target is unchanged. The experiment in a line: MSD, AD-P3 coated plate (FIG. 34); C10-2 300 ng/ml + PBS/0.1% BSA (no competitor).
Experiment [37] has the same target. Kind of experiment: MSD, AD-P3 coated plate (FIG. 34); C10-2 10 ng/ml + PBS/0.1% BSA (no competitor).
Experiment [38] shares this target. The experiment in a line: fluid phase MSD ELISA: inhibition of AD-P3 tau antigen capture.

By pIC50 is commonly meant the IC50 on a negative log10 scale, so that one unit is a factor of ten.

pIC50: −log10 of the molar value. “And” between values parts separate entries of the source, which are not always exact repeats. Equal entries are not always repeated. Where only a bound is given, the exact number is not on record here.

Sequence of pathological hyperphosphorylated tau from human Alzheimer's disease brain, sarkosyl-insoluble P3 fraction (human) (P10636 other isoform, or with tags, fused parts or gaps limits assumed): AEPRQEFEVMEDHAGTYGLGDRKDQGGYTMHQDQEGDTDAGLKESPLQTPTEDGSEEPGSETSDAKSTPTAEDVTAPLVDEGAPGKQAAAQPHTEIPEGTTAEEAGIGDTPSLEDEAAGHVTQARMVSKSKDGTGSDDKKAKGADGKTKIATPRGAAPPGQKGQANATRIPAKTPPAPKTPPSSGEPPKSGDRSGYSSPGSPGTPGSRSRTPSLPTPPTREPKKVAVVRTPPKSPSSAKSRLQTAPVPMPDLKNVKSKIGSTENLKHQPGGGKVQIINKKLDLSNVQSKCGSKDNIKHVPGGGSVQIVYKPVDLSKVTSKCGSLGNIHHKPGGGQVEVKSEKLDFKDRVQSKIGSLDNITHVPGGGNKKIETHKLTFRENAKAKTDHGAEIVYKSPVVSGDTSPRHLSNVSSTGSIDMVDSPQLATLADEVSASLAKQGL
Sequence of hyperphosphorylated tau phosphorylated at serine 396 in human Alzheimer brain (extracts and sections) (human) (P10636 other isoform, or with tags, fused parts or gaps limits assumed): as above
Sequence of normal P301L mutant human 4R0N tau from rTg4510 mouse brain (55 kDa band) (human) (P10636 other isoform, or with tags, fused parts or gaps P301L P301L): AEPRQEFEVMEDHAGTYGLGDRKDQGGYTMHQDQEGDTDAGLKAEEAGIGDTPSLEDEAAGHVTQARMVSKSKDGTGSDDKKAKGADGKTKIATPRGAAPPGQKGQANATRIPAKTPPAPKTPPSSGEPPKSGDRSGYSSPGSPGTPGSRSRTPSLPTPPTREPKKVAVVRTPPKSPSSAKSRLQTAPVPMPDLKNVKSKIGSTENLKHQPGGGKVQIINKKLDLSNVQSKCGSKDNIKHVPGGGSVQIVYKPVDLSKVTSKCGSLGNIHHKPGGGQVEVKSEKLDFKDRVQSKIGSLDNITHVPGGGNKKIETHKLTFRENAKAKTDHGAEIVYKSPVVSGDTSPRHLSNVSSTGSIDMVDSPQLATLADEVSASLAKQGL

With “Tau5 (commercial total Tau antibody, Invitrogen)”, the percent reduction of the 55 kDa band in experiment [1] was found to be 74%.

Take “PHF13 (commercially available antibody for Tau phosphorylated at Ser 396)”: the mean Signal in experiment [2] is 5790 signal; in experiment [3], 355 signal; in experiment [5] it was 280 signal; in experiment [6], 335 signal; in experiment [7] it was 852 signal; in experiment [8] it was 299 signal. For the same substance, the mean Signal in experiment [9] turned out to be 1580 signal; in experiment [10], 560 signal; in [11], 2880 signal; in experiment [12], 2180 signal; in [13], 953 signal; in experiment [14], 12600 signal. Also, the mean Signal in experiment [15] is 481 signal; in experiment [16] it was 6900 signal. Besides, the signal in [2] is 6130 signal and 5460 signal; in experiment [3], 370 signal and 340 signal; in experiment [5] it was 284 signal and 276 signal; in experiment [6], 358 signal and 312 signal; in experiment [7] it was 856 signal and 847 signal; in experiment [8], 305 signal and 292 signal. The signal in experiment [9] is 1660 signal and 1500 signal; in experiment [10], 568 signal and 551 signal; in [11], 2900 signal and 2860 signal; in [12], 2280 signal and 2080 signal; in [13], 1020 signal and 886 signal; in experiment [14] it was 13700 signal and 11600 signal. Further, the signal is 472 signal and 490 signal in experiment [15]; 7540 signal and 6250 signal in experiment [16]. In [4], this substance showed a pIC50 of 6.00 to 6.30.

As for Antibody C10-2 (murine), the mean Signal in [17] was 366 signal; in experiment [18], 51200 signal; in experiment [20], 21800 signal; in experiment [22], 1880 signal; in experiment [23], 38500 signal; in [26] it was 357 signal. The mean Signal came out at 383 signal in experiment [27]; 345 signal in [28]; 451 signal in experiment [29]; 11900 signal in experiment [30]; 870 signal in [32]; 407 signal in [33]. Besides, the results for the mean Signal in experiment [36] and in [37] were 30400 signal and 5720 signal, respectively. For the same substance, the signal in experiment [17] is 384 signal and 348 signal; in experiment [18] it was 51300 signal and 51100 signal; in [20], 21900 signal and 21700 signal; in experiment [22] it was 1890 signal and 1870 signal; in experiment [23], 38200 signal and 38800 signal; in experiment [26] it was 401 signal and 313 signal. In addition, the signal in experiment [27] was 398 signal and 367 signal; in experiment [28], 384 signal and 306 signal; in [29], 462 signal and 439 signal; in experiment [30], 12000 signal and 11800 signal; in experiment [32], 920 signal and 820 signal; in experiment [33], 434 signal and 379 signal. For the same substance, the signal in [36] was 30300 signal and 30500 signal; in experiment [37], 5860 signal and 5580 signal. For the same substance, the pIC50 is 7.70 to 8.00 in experiment [19]; 7.70 to 8.00 in experiment [21]; 8.52 in [25]; 6.49 in experiment [34]; 8.52 in experiment [38]. Further, the values for the percent removed by immunodepletion in experiment [24] and in [31] were 93% and 90%, respectively. In [35], the AD/ctrl was more than 100 fold.

(Values after patent US20170015738A1.)
